From article PMC10945830

Biological target: Anthopleura YFP (AnthoYFP) from Neon Anthopleura sola (Anthopleura sola (endogenous in tentacles))
Assay: SEC-MALS; isolated AnthoYFP pigment; self-association, tetramer; conditions of the SEC-MALS run not told in the main text

stoichiometry N: 4
Substance: Anthopleura YFP (AnthoYFP) from Neon Anthopleura sola (natural protein)
